Experimental data taken from the supplement of paper PMC10567573.

B1: TRAF3IP2 (parent)
chain: FMEKRNQWLVSQLSAASPDTGHDS

Variants of: B1
Assay: protein stability index of a GFP-peptide fusion (GPS, HEK-293T) (PSI 1-6); higher = more stable
Conditions: c terminus: a fixed tail appended
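Note: lentivirally expressed fusions sorted by FACS into six bins by GFP to DsRed ratio, PSI derived from sequencing read proportions per bin multiplied by bin number.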

Q: Which protein stability index does the source give for FMEKRNQWLVSQLSAASFDTGHDS [P18F] here?
A: The protein stability index was 1.9.

Q: For FMEKRNQWLVSQLSAASDDTGHDS [P18D], which protein stability index is on record?
A: Its protein stability index is 2.88.

Q: Which protein stability index does the source give for FMEKRNQWLVSQLSAASEDTGHDS [P18E] here?
A: The protein stability index was 2.62.

Q: With FMEKRNQWLVSQLSAASIDTGHDS [P18I] as the variant, how does the protein stability index read?
A: The protein stability index was 2.69.

Q: For FMEKRNQWLVSQLSAASLDTGHDS [P18L], which protein stability index is on record?
A: The protein stability index was 1.93.

Q: For FMEKRNQWLVSQLSAASYDTGHDS [P18Y], which protein stability index is on record?
A: The protein stability index was 2.7.

Q: With FMEKRNQWLVSQLSAASTDTGHDS [P18T] as the variant, how does the protein stability index read?
A: Its protein stability index is 2.94.

Q: Which protein stability index does the source give for FMEKRNQWLVSQLSAASRDTGHDS [P18R] here?
A: The protein stability index was 2.77.

Q: With FMEKRNQPLVSQLSAASPDTGHDS [W8P] as the variant, how does the protein stability index read?
A: Its protein stability index is 4.58.

Q: Which protein stability index does the source give for FMEKRNQALVSQLSAASPDTGHDS [W8A] here?
A: Its protein stability index is 4.75.

Q: Which protein stability index does the source give for FMEKRNQLLVSQLSAASPDTGHDS [W8L] here?
A: Its protein stability index is 4.45.

Q: For FMEKRNQTLVSQLSAASPDTGHDS [W8T], which protein stability index is on record?
A: The protein stability index was 5.2.

Q: With FMEKRNQGLVSQLSAASPDTGHDS [W8G] as the variant, how does the protein stability index read?
A: The protein stability index was 5.09.

Q: For FMEKRNQSLVSQLSAASPDTGHDS [W8S], which protein stability index is on record?
A: Its protein stability index is 4.93.

Q: With FMEKRNQMLVSQLSAASPDTGHDS [W8M] as the variant, how does the protein stability index read?
A: Its protein stability index is 4.72.

Q: For FMEKRNQWLVSQLSAASPDTGHLS [D23L], which protein stability index is on record?
A: Its protein stability index is 1.81.

Q: Which protein stability index does the source give for FMEKRNQWLVSQLSAASPDTGHTS [D23T] here?
A: The protein stability index was 2.57.

Q: For FMEKRNQWLVSQLSAASPDTGHNS [D23N], which protein stability index is on record?
A: The protein stability index was 2.08.

Q: With FMEKRNQWLVSQLSAASPDTGHRS [D23R] as the variant, how does the protein stability index read?
A: The protein stability index was 2.07.

Q: Which protein stability index does the source give for FMEKRNQWLVSQLSAASPDTGHQS [D23Q] here?
A: Its protein stability index is 2.44.

Q: With FMEKRNQWLVSQLSAASPDTGHAS [D23A] as the variant, how does the protein stability index read?
A: Its protein stability index is 2.49.

Q: Which protein stability index does the source give for FMEKRNQWLVSQLSAASPDTGHES [D23E] here?
A: Its protein stability index is 2.49.

Q: With FMEKRNQWLVSQLSAASPDTGHHS [D23H] as the variant, how does the protein stability index read?
A: Its protein stability index is 2.47.

Q: For FMLKRNQWLVSQLSAASPDTGHDS [E3L], which protein stability index is on record?
A: The protein stability index was 2.75.

Q: Which protein stability index does the source give for FMHKRNQWLVSQLSAASPDTGHDS [E3H] here?
A: The protein stability index was 1.71.

Q: Which protein stability index does the source give for FMPKRNQWLVSQLSAASPDTGHDS [E3P] here?
A: Its protein stability index is 1.93.

Q: With FMVKRNQWLVSQLSAASPDTGHDS [E3V] as the variant, how does the protein stability index read?
A: The protein stability index was 1.95.

Q: Which protein stability index does the source give for FMKKRNQWLVSQLSAASPDTGHDS [E3K] here?
A: Its protein stability index is 2.91.

Q: With FMRKRNQWLVSQLSAASPDTGHDS [E3R] as the variant, how does the protein stability index read?
A: The protein stability index was 1.05.

Q: With FMNKRNQWLVSQLSAASPDTGHDS [E3N] as the variant, how does the protein stability index read?
A: The protein stability index was 1.97.

Q: Which protein stability index does the source give for FMEKRNQWLVSQLSAASPDTGHDG [S24G] here?
A: Its protein stability index is 3.22.

Q: For FMEKRNQWLVSQLSAASPDTGHDE [S24E], which protein stability index is on record?
A: The protein stability index was 3.68.

Q: For FMEKRNQWLVSQLSAASPDTGHDM [S24M], which protein stability index is on record?
A: The protein stability index was 2.09.

Q: For FMEKRNQWLVSQLSAASPDTGHDH [S24H], which protein stability index is on record?
A: Its protein stability index is 2.26.

Q: With FMEKRNQWLVSQLSAASPDTGHDF [S24F] as the variant, how does the protein stability index read?
A: Its protein stability index is 2.15.

Q: With FMEKRNQWLVSQLSAASPDTGHDK [S24K] as the variant, how does the protein stability index read?
A: Its protein stability index is 1.81.

Q: Which protein stability index does the source give for FMEKRNQWLVSQLSAASPDTGHDC [S24C] here?
A: Its protein stability index is 2.61.

Q: Which protein stability index does the source give for FMEKRNQWLVSQLSAASPDTGHDD [S24D] here?
A: Its protein stability index is 2.45.

Q: Which protein stability index does the source give for FMEKRNQWLVSQLSAASPDTGHDQ [S24Q] here?
A: Its protein stability index is 2.85.

Q: For FMEKRNQWLVSQLSAASPDTGTDS [H22T], which protein stability index is on record?
A: The protein stability index was 3.27.

Q: For FMEKRNQWLVSQLSAASPDTGDDS [H22D], which protein stability index is on record?
A: Its protein stability index is 2.87.

Q: Which protein stability index does the source give for FMEKRNQWLVSQLSAASPDTGEDS [H22E] here?
A: Its protein stability index is 3.38.

Q: For FMEKRNQWLVSQLSAASPDTGPDS [H22P], which protein stability index is on record?
A: The protein stability index was 2.94.

Q: With FMEKRNQWLVSQLSAASPDTGNDS [H22N] as the variant, how does the protein stability index read?
A: The protein stability index was 2.59.

Q: With FMEKRNQWLVSQLSAASPDTGLDS [H22L] as the variant, how does the protein stability index read?
A: Its protein stability index is 2.29.

Q: With FMEKRNQWLVSQLSAASPDTGIDS [H22I] as the variant, how does the protein stability index read?
A: Its protein stability index is 1.95.

Q: Which protein stability index does the source give for FMEKRNQWLVSQLSAASPDTFHDS [G21F] here?
A: The protein stability index was 1.58.

Q: With FMEKRNQWLVSQLSAASPDTYHDS [G21Y] as the variant, how does the protein stability index read?
A: Its protein stability index is 2.08.

Q: Which protein stability index does the source give for FMEKRNQWLVSQLSAASPDTAHDS [G21A] here?
A: The protein stability index was 2.72.

Q: Which protein stability index does the source give for FMEKRNQWLVSQLSAASPDTQHDS [G21Q] here?
A: Its protein stability index is 2.52.

Q: For FMEKRNQWLVSQLSAASPDTCHDS [G21C], which protein stability index is on record?
A: The protein stability index was 1.8.

Q: For FMEKRNQWLVSQLSAASPDTIHDS [G21I], which protein stability index is on record?
A: Its protein stability index is 1.8.

Q: With FMEKRNQWLVSQLSAASPDTSHDS [G21S] as the variant, how does the protein stability index read?
A: Its protein stability index is 2.18.

Q: For FMEKRNQWLVSQLSAASPDTHHDS [G21H], which protein stability index is on record?
A: The protein stability index was 2.2.

Q: With FMEKRNQWLVSQLSAASPDTTHDS [G21T] as the variant, how does the protein stability index read?
A: Its protein stability index is 2.44.

Q: Which protein stability index does the source give for FMEKRNQWLVSQLSAASPDTVHDS [G21V] here?
A: Its protein stability index is 1.67.

Q: For FMEKRNQWLVSQLSAASPDTNHDS [G21N], which protein stability index is on record?
A: The protein stability index was 2.56.

Q: For FMEKRNQWLVSQLSAMSPDTGHDS [A16M], which protein stability index is on record?
A: The protein stability index was 2.06.

Q: Which protein stability index does the source give for FMEKRNQWLVSQLSATSPDTGHDS [A16T] here?
A: Its protein stability index is 1.96.

Q: For FMEKRNQWLVSQLSAVSPDTGHDS [A16V], which protein stability index is on record?
A: The protein stability index was 2.26.

Q: With FMEKRNQWLVSQLSANSPDTGHDS [A16N] as the variant, how does the protein stability index read?
A: The protein stability index was 2.9.

Q: With FMEKRNQWLVSQLSAHSPDTGHDS [A16H] as the variant, how does the protein stability index read?
A: Its protein stability index is 2.47.

Q: For FMEKRNQWLVSQLSAQSPDTGHDS [A16Q], which protein stability index is on record?
A: Its protein stability index is 2.6.

Q: For FMEKRNQWLVSQLSALSPDTGHDS [A16L], which protein stability index is on record?
A: The protein stability index was 1.38.

Q: Which protein stability index does the source give for FMEKRNQWLVSQLSAKSPDTGHDS [A16K] here?
A: The protein stability index was 2.09.

Q: With FMEKRNQWLVSQLSAISPDTGHDS [A16I] as the variant, how does the protein stability index read?
A: The protein stability index was 2.26.

Q: Which protein stability index does the source give for FMEKRNQWLVSQLSAYSPDTGHDS [A16Y] here?
A: Its protein stability index is 1.87.

Q: With FMEERNQWLVSQLSAASPDTGHDS [K4E] as the variant, how does the protein stability index read?
A: The protein stability index was 3.69.

Q: Which protein stability index does the source give for FMEGRNQWLVSQLSAASPDTGHDS [K4G] here?
A: The protein stability index was 1.89.

Q: For FMEDRNQWLVSQLSAASPDTGHDS [K4D], which protein stability index is on record?
A: Its protein stability index is 3.

Q: Which protein stability index does the source give for FMEFRNQWLVSQLSAASPDTGHDS [K4F] here?
A: Its protein stability index is 2.35.

Q: Which protein stability index does the source give for FMEMRNQWLVSQLSAASPDTGHDS [K4M] here?
A: The protein stability index was 2.51.

Q: For FMELRNQWLVSQLSAASPDTGHDS [K4L], which protein stability index is on record?
A: The protein stability index was 2.26.

Q: With FMESRNQWLVSQLSAASPDTGHDS [K4S] as the variant, how does the protein stability index read?
A: The protein stability index was 2.24.

Q: Which protein stability index does the source give for FMEPRNQWLVSQLSAASPDTGHDS [K4P] here?
A: Its protein stability index is 2.36.

Q: For FMEQRNQWLVSQLSAASPDTGHDS [K4Q], which protein stability index is on record?
A: Its protein stability index is 2.57.

Q: For FMEWRNQWLVSQLSAASPDTGHDS [K4W], which protein stability index is on record?
A: The protein stability index was 1.3.

Q: Which protein stability index does the source give for FMERRNQWLVSQLSAASPDTGHDS [K4R] here?
A: Its protein stability index is 2.54.

Q: Which protein stability index does the source give for FMEKRNQWLGSQLSAASPDTGHDS [V10G] here?
A: The protein stability index was 3.14.

Q: For FMEKRNQWLESQLSAASPDTGHDS [V10E], which protein stability index is on record?
A: The protein stability index was 4.34.

Q: Which protein stability index does the source give for FMEKRNQWLFSQLSAASPDTGHDS [V10F] here?
A: Its protein stability index is 1.29.

Q: Which protein stability index does the source give for FMEKRNQWLSSQLSAASPDTGHDS [V10S] here?
A: The protein stability index was 3.5.

Q: Which protein stability index does the source give for FMEKRNQWLMSQLSAASPDTGHDS [V10M] here?
A: The protein stability index was 2.74.

Q: With FMEKRNQWLPSQLSAASPDTGHDS [V10P] as the variant, how does the protein stability index read?
A: The protein stability index was 2.46.

Q: With DMEKRNQWLVSQLSAASPDTGHDS [F1D] as the variant, how does the protein stability index read?
A: Its protein stability index is 5.05.

Q: Which protein stability index does the source give for TMEKRNQWLVSQLSAASPDTGHDS [F1T] here?
A: Its protein stability index is 4.2.

Q: For GMEKRNQWLVSQLSAASPDTGHDS [F1G], which protein stability index is on record?
A: Its protein stability index is 4.26.

Q: For WMEKRNQWLVSQLSAASPDTGHDS [F1W], which protein stability index is on record?
A: The protein stability index was 3.17.

Q: With VMEKRNQWLVSQLSAASPDTGHDS [F1V] as the variant, how does the protein stability index read?
A: The protein stability index was 4.55.

Q: Which protein stability index does the source give for CMEKRNQWLVSQLSAASPDTGHDS [F1C] here?
A: Its protein stability index is 3.98.

Q: With FMEKRPQWLVSQLSAASPDTGHDS [N6P] as the variant, how does the protein stability index read?
A: Its protein stability index is 3.03.

Q: Which protein stability index does the source give for FMEKRGQWLVSQLSAASPDTGHDS [N6G] here?
A: Its protein stability index is 3.08.

Q: For FMEKRIQWLVSQLSAASPDTGHDS [N6I], which protein stability index is on record?
A: Its protein stability index is 1.42.

Q: Which protein stability index does the source give for FMEKRHQWLVSQLSAASPDTGHDS [N6H] here?
A: The protein stability index was 2.05.
